In patent publication US7989588B2, “Cell permeable peptide” (Osaka University, priority 2005, dated 2011):

Tested on: A431 cells
Experiment: Evaluation of intracellular transfer ability of peptide (cytotoxicity test by PSIF; MTT assay)
Format: cell-based, human
Conditions: 5 μL culture supernatant containing fusion body of peptide and PSIF, cycloheximide 10 μg/mL, 24 hours, viability of TAT peptide (Tat 48-60)-PSIF group taken as 100%
Description: Subsequently, using a fusion body of the peptide and PSIF (protein synthesis inhibitory factor) obtained by recombining each library gene in a PSIF-expressing vector, the intracellular transfer activity of the peptide was evaluated using the cytotoxicity by PSIF as an indicator. […] The screening was performed using a supernatant of the culture of Escherichia coli producing the fusion body of the peptide and PSIF. As a result, it can be confirmed that the clone having the ability to penetrate into the cell is selectively enriched as the panning is repeated. It was successful to yield many clones having a higher introduction efficiency than TAT peptide currently described to be the most excellent in introduction efficiency.
The plasmids collected from the library (input) made and the libraries after the 2nd, 3rd and 4th panning were treated with NcoI (Toyobo Co., Ltd.) and NotI. A plasmid expressing the fusion body of the peptide and PSIF was constructed by incorporating the treated plasmid into PSIF expression vector pY7 (PSIF expression codons had been incorporated into pCantab5e) previously treated with NcoI and NotI using a ligation kit (Takara Shuzo Co., Ltd.). […]; A04646) or Pseudomonas microbial cell exotoxin (GenBank; K01397) (FIG. 6) was utilized.
The plasmid expressing the fusion body of the peptide and PSIF was introduced into TG1 by electroporation, and resulting colonies were randomly picked up into a 96-well plate (NUNC™) and cultured overnight. To a plate in which 100 μL of the 2YT medium containing 50 μg/mL of ampicillin and 2% glucose was newly added, 10 μL of the culture medium cultured overnight was added and cultured until OD600=0.4 to 0.5. The culture was centrifuged at 3,000 rpm for 20 minutes, the supernatant was removed, and 200 μL of the 2YT medium containing 1 mM IPTG (Sigma Aldrich Inc.) and 50 μg/mL of ampicillin was added to the plate, which was then cultured at 37° C. for 12 hours. The culture was centrifuged again at 3,000 rpm for 20 minutes, and the resulting supernatant was subjected to the following screening.
A431 cells diluted at 1.0×10^4 cells/well with Opti-MEM (Invitrogen™ life technologies) were seeded in a 96-well plate, and cycloheximide (Wako Pure Chemical Industries Ltd.) at a final concentration of 10 μg/mL was added thereto. Then, 5 μL of the culture supernatant made according to the above method was added, and the cells were cultured at 37° C. under the saturated vapor pressure and 5% carbon dioxide gas phase for 24 hours. Subsequently, 10 μL/well of 5 mg/mL of MTT (Wako Pure Chemical Industries Ltd.) solution was added, and further cultured at 37° C. for 4 hours. Then, 100 μL/well of 20% SDS (Wako Pure Chemical Industries Ltd., Osaka, Japan)/0.01 N HCl was added and the plate was left stand in a dark place for 4 hours. The intracellular transfer ability of the peptide was evaluated using the cytotoxicity by PSIF introduced into the cells by the peptide as the indicator by measuring absorbance using a microplate reader (Test wave length: 595 nm/Reference wave length: 655 nm). Viability was calculated by making the viability in the group treated with the culture supernatant containing the fusion body of the TAT peptide (Tat 48-60) and PSIF 100%.

Sequence | Viability
GIASNGQLPTPKT [SEQ ID NO 5, cell permeable peptide, tested as fusion body with PSIF] | about 35%
GILLRNQVLPPQI [SEQ ID NO 3, cell permeable peptide, tested as fusion body with PSIF] | about 65%
GLFNWLQLRPPSW [SEQ ID NO 2, cell permeable peptide, tested as fusion body with PSIF] | about 80%
GRKKRRQRRRPPQ [SEQ ID NO 17, TAT peptide (Tat 48-60) derived from HIV Tat protein, reference compound] | 100%
GSNFFYQHRLPFS [SEQ ID NO 1, cell permeable peptide, tested as fusion body with PSIF] | about 45%
GTSRANSYDNLKSETLTQ [SEQ ID NO 16, cell permeable peptide, tested as fusion body with PSIF] | about 15%
MSDPNMNPGTLGSSHILW [SEQ ID NO 10, cell permeable peptide, tested as fusion body with PSIF] | about 30%
QDGGTWHLVAYCAKSHRY [SEQ ID NO 9, cell permeable peptide, tested as fusion body with PSIF] | about 45%
RRRRNRTRRNRRRVR [SEQ ID NO 4, cell permeable peptide, tested as fusion body with PSIF] | about 93%
SGEHTNGPSKTSVRWVWD [SEQ ID NO 6, cell permeable peptide, tested as fusion body with PSIF] | about 35%
SMTTMEFGHSMITPYKID [SEQ ID NO 7, cell permeable peptide, tested as fusion body with PSIF] | about 45%
SPGNQSTGVIGTPSFSNH [SEQ ID NO 11, cell permeable peptide, tested as fusion body with PSIF] | about 45%
SPTRPTHQGLLPVSNKYT [SEQ ID NO 13, cell permeable peptide, tested as fusion body with PSIF] | about 77%
SSGANYFFNAIYDFLSNF [SEQ ID NO 15, cell permeable peptide, tested as fusion body with PSIF] | about 35%
STAPGSLQEDILDSVPA [SEQ ID NO 12, cell permeable peptide, tested as fusion body with PSIF] | about 85%
STHLQYHVNYTSRTVVSM [SEQ ID NO 8, cell permeable peptide, tested as fusion body with PSIF] | about 60%
YSSAYEWFNRYKQPYYEL [SEQ ID NO 14, cell permeable peptide, tested as fusion body with PSIF] | about 65%
